Measurements from IntAct's records for PubMed 32017888.

B1: Ras-related protein Rab-8A (Homo sapiens), P61006 (parent)
chain: MAKTYDYLFKLLLIGDSGVGKTCVLFRFSEDAFNSTFISTIGIDFKIRTIELDGKRIKLQIWDTAGQERFRTITTAYYRGAMGIMLVYDITNEKSFDNIRNWIRNIEEHASADVEKMILGNKCDVNDKRQVSKERGEKLALDYGIKFMETSAKANINVENAFFTLARDIKAKMDKKLEGNSPQGSNQGVKITPDQQKRSSFFRCVLL
partner: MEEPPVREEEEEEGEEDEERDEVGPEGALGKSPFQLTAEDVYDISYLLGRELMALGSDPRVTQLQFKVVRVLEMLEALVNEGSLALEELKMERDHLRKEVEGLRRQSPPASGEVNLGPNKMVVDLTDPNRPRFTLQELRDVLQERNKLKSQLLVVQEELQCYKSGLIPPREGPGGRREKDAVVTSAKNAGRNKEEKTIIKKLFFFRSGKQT
B2: RILP-like protein 2 (Homo sapiens), Q969X0 (parent)
chain: B1 partner

Variants of: B1
Details: with ripl2_human RILPL2, Q969X0
With K58Q the “effect of a mutation on the interaction” value was “disrupting interaction strength”.
With K58A the “effect of a mutation on the interaction” value was “with no effect”.
K58E was tested, and the “effect of a mutation on the interaction” value was “disrupting interaction strength”.
D44A was tested, and the “effect of a mutation on the interaction” value was “disrupting interaction strength”.
In the case of D44N, the “effect of a mutation on the interaction” value is reported as “disrupting interaction strength”.
D44K was tested, and the “effect of a mutation on the interaction” value was “disrupting interaction strength”.
For T4A, the “effect of a mutation on the interaction” value was “with no effect”.

Variants of: B1
Details: with ripl2_human RILPL2, Q969X0
Remark: another data set of the same source
T22N was tested, and the “effect of a mutation on the interaction” value was “disrupting interaction strength”.

Variants of: B2
Details: with rab8a_human RAB8A
For P131K, the “effect of a mutation on the interaction” value was “decreasing interaction strength”.
In the case of P131A, the “effect of a mutation on the interaction” value is reported as “decreasing interaction strength”.
In the case of P131C, the “effect of a mutation on the interaction” value is reported as “decreasing interaction strength”.
For P131R, the “effect of a mutation on the interaction” value was “decreasing interaction strength”.
R130E was tested, and the “effect of a mutation on the interaction” value was “disrupting interaction strength”.
R130K was tested, and the “effect of a mutation on the interaction” value was “decreasing interaction strength”.
With R130Q the “effect of a mutation on the interaction” value was “decreasing interaction strength”.
In the case of R130A, the “effect of a mutation on the interaction” value is reported as “decreasing interaction strength”.
R139E was tested, and the “effect of a mutation on the interaction” value was “decreasing interaction strength”.
For R139Q, the “effect of a mutation on the interaction” value was “with no effect”.
With R139A the “effect of a mutation on the interaction” value was “with no effect”.
For E157Q, the “effect of a mutation on the interaction” value was “decreasing interaction strength”.
With E157K the “effect of a mutation on the interaction” value was “decreasing interaction strength”.
E157A was tested, and the “effect of a mutation on the interaction” value was “decreasing interaction strength”.
For L135A, the “effect of a mutation on the interaction” value was “decreasing interaction strength”.
With K149E the “effect of a mutation on the interaction” value was “decreasing interaction strength”.
K149Q was tested, and the “effect of a mutation on the interaction” value was “decreasing interaction strength”.
With K149A the “effect of a mutation on the interaction” value was “decreasing interaction strength”.
With F133A the “effect of a mutation on the interaction” value was “disrupting interaction strength”.
In the case of R132E, the “effect of a mutation on the interaction” value is reported as “disrupting interaction strength”.
In the case of R132K, the “effect of a mutation on the interaction” value is reported as “disrupting interaction strength”.
For R132Q, the “effect of a mutation on the interaction” value was “disrupting interaction strength”.

Variants of: B2
Details: with rab8a_human RAB8A, P61006
With R132A the “effect of a mutation on the interaction” value was “disrupting interaction strength”.
